According to patent US12427210B2 (3B PHARMACEUTICALS GMBH, dated 2025):

What was measured:
[1] = biological target: Recombinant human FAP (R&D systems, #3715-SE) (human); assay: SPR (Biacore T200), rhFAP captured by anti-FAP antibody, single cycle kinetics; category A = pKD values >8.0
[2] = biological target: human fibroblast activation protein (FAP) on human WI-38 fibroblasts (human); assay: competitive FACS binding on FAP-expressing WI-38 cells against 3 nM Cy5-labeled compound; category A = pIC50 values >8.0

Recombinant human FAP (R&D systems, #3715-SE) (human), sequence (chain, as listed by the source limits assumed): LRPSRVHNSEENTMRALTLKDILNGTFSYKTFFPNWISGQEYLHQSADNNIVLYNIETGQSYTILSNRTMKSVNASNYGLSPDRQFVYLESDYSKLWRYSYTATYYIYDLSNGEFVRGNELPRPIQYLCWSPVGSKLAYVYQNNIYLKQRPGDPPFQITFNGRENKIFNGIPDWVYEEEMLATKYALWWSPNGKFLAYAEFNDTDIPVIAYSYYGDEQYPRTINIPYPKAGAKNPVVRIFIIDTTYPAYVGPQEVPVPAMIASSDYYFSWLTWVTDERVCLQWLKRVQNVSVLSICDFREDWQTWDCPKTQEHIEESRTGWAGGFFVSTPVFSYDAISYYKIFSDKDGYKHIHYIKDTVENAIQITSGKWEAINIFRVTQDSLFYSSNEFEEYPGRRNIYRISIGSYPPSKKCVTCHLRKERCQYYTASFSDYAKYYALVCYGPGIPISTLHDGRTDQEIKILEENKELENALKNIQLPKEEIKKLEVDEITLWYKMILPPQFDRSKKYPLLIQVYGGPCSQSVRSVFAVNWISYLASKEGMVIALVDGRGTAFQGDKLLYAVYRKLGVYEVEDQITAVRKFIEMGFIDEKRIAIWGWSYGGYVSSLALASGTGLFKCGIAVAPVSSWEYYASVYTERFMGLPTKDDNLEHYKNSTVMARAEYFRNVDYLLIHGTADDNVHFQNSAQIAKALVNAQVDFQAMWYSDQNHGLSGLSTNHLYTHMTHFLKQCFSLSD

Row | Binder | pKD Category [1] [pKD] | pIC50 Category (FACS) [2] [pIC50]
1 | CPPTQFC (N-terminal hexanoyl (Hex); Cys1 and Cys7 cyclised through tMeBn carrying DOTA-AET; free C-terminal acid (-OH)) [Hex-[Cys(tMeBn(DOTA-AET))-Pro-Pro-Thr-Gln-Phe-Cys]-OH (3BP-3554)] | > 8 | –
2 | CPPTQFCD (N-terminal hexanoyl (Hex); Cys1 and Cys7 cyclised through tMeBn carrying DOTA-PP; C-terminal amide) [Hex-[Cys(tMeBn(DOTA-PP))-Pro-Pro-Thr-Gln-Phe-Cys]-Asp-NH2 (3BP-3407)] | > 8 | > 8
3 | CPPTQFCD (N-terminal hexanoyl (Hex); Cys1 and Cys7 cyclised through tMeBn carrying GaDOTA-PP (gallium complex); C-terminal amide) [Hex-[Cys(tMeBn(GaDOTA-PP))-Pro-Pro-Thr-Gln-Phe-Cys]-Asp-NH2 (3BP-3592)] | > 8 | > 8
4 | CPPTQFC (N-terminal hexanoyl (Hex); Cys1 and Cys7 cyclised through tMeBn carrying InDOTA-AET (indium complex); free C-terminal acid (-OH)) [Hex-[Cys(tMeBn(InDOTA-AET))-Pro-Pro-Thr-Gln-Phe-Cys]-OH (3BP-3623)] | > 8 | –
5 | CPPTQFCD (N-terminal hexanoyl (Hex); Cys1 and Cys7 cyclised through tMeBn carrying EuDOTA-PP (europium complex); C-terminal amide) [Hex-[Cys(tMeBn(EuDOTA-PP))-Pro-Pro-Thr-Gln-Phe-Cys]-Asp-NH2 (3BP-3661)] | – | > 8
6 | CPPTQFC (N-terminal hexanoyl (Hex); Cys1 and Cys7 cyclised through tMeBn carrying GaDOTA-AET (gallium complex); free C-terminal acid (-OH)) [Hex-[Cys(tMeBn(GaDOTA-AET))-Pro-Pro-Thr-Gln-Phe-Cys]-OH (3BP-3949)] | > 8 | –
7 | CPPTQFC (N-terminal hexanoyl (Hex); Cys1 and Cys7 cyclised through tMeBn carrying LuDOTA-AET (lutetium complex); free C-terminal acid (-OH)) [Hex-[Cys(tMeBn(LuDOTA-AET))-Pro-Pro-Thr-Gln-Phe-Cys]-OH (3BP-3624)] | > 8 | –
8 | CPPTQFCD (N-terminal hexanoyl (Hex); Cys1 and Cys7 cyclised through tMeBn carrying InDOTA-PP (indium complex); C-terminal amide) [Hex-[Cys(tMeBn(InDOTA-PP))-Pro-Pro-Thr-Gln-Phe-Cys]-Asp-NH2 (3BP-3590)] | > 8 | > 8
9 | CPPTQFCD (N-terminal hexanoyl (Hex); Cys1 and Cys7 cyclised through tMeBn carrying LuDOTA-PP (lutetium complex); C-terminal amide) [Hex-[Cys(tMeBn(LuDOTA-PP))-Pro-Pro-Thr-Gln-Phe-Cys]-Asp-NH2 (3BP-3591)] | > 8 | > 8
